Measurements reported in article PMC3281069.

Target: E2 wild type, E2 subunit (acyltransferase component) of the pyruvate dehydrogenase complex of Geobacillus stearothermophilus (Geobacillus stearothermophilus) (UniProt P11961)
Test: SEC; E2wt on a Superdex200 gel filtration column in Solubility Buffer 2.2 (1x PBS, 50 mM L-glutamine, 50 mM NaCl, 250 mM L-arginine)

## E2 wild type, E2 subunit (acyltransferase component) of the pyruvate dehydrogenase complex of Geobacillus stearothermophilus (from UniProt P11961 1-428) (natural protein)
  stoichiometry N: 60
